In publication PMC2699393 (EMBO Reports, 2009):

Biological target: T1, MBP–TIP150 (maltose-binding protein–tracking protein 150) (human, UniProt Q5JR59 1-1369)
T1 sequence (looked up): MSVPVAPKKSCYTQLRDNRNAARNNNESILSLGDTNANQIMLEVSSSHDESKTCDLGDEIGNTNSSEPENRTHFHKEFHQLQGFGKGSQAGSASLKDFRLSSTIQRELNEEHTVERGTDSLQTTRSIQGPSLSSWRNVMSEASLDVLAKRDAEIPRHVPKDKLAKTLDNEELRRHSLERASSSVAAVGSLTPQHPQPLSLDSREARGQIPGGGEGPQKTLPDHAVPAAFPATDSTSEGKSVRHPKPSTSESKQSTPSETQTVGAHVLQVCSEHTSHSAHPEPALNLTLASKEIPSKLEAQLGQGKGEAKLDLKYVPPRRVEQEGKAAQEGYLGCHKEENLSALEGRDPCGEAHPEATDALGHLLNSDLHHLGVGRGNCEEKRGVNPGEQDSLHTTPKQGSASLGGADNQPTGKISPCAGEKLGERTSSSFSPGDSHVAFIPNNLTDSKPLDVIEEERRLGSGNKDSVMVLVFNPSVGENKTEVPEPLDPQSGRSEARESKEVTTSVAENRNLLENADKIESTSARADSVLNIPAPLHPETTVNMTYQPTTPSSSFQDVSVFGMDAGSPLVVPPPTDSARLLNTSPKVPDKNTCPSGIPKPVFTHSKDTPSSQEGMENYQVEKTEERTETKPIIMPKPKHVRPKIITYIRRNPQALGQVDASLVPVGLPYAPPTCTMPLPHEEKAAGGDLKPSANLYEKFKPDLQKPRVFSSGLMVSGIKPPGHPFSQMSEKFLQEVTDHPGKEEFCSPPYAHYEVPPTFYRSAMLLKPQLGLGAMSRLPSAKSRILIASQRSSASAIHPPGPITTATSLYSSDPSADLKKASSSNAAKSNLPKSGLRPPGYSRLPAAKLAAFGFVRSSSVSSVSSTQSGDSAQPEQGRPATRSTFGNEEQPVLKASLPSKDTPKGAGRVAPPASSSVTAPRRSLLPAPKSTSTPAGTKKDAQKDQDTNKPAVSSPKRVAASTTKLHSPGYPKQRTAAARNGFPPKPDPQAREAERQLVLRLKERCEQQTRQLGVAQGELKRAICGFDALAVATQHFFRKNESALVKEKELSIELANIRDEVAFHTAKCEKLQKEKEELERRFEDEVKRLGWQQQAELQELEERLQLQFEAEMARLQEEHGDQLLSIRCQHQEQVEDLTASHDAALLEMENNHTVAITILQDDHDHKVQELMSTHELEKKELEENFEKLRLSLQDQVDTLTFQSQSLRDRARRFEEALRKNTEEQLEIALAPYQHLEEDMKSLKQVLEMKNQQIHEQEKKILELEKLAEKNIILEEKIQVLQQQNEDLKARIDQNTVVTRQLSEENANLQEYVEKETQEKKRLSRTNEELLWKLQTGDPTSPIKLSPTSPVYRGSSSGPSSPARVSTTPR
Assay: pull-down

binding result: binds
B1: GST–EB1 (glutathione-S-transferase–end-binding protein 1) (natural protein, human, UniProt Q15691 1-268, looked up)
chain: MAVNVYSTSVTSDNLSRHDMLAWINESLQLNLTKIEQLCSGAAYCQFMDMLFPGSIALKKVKFQAKLEHEYIQNFKILQAGFKRMGVDKIIPVDKLVKGKFQDNFEFVQWFKKFFDANYDGKDYDPVAARQGQETAVAPSLVAPALNKPKKPLTSSSAAPQRPISTQRTAAAPKAGPGVVRKNPGVGNGDDEAAELMQQVNVLKLTVEDLEKERDFYFGKLRNIELICQENEGENDPVLQRIVDILYATDEGFVIPDEGGPQEEQEEY
